# Laboratory results taken from patent publication US20230183713A1, “SITE-SPECIFIC RECOMBINASES FOR EFFICIENT AND SPECIFIC GENOME EDITING” (TECHNISCHE UNIVERSITÄt DRESDEN, published 2023).
# Residue numbers refer to the chain shown, from its start. In names and notes the source's numbering stands.
# T1: Cre recombinase monomer with Q311R mutation
# T1 chain: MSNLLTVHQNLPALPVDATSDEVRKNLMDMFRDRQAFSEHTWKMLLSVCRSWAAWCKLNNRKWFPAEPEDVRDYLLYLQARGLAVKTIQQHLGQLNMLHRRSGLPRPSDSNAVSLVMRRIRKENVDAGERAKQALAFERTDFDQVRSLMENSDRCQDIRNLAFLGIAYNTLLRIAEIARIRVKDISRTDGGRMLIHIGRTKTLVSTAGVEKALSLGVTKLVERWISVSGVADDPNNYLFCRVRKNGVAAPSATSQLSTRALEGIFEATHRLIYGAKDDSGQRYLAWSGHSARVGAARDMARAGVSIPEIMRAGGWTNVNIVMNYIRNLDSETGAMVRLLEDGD
# T2: Cre recombinase monomer with R292A mutation
# T2 chain: T1 chain with R292A, R311Q
# T3: Cre recombinase monomer with R292S mutation
# T3 chain: T1 chain with R292S, R311Q
# T4: Cre recombinase monomer with R292E mutation
# T4 chain: T1 chain with R292E, R311Q
# T5: Cre recombinase monomer with K201A mutation
# T5 chain: T1 chain with K201A, R311Q
# T6: Cre recombinase monomer with R292N mutation
# T6 chain: T1 chain with R292N, R311Q
# T7: Cre recombinase monomer with R292I mutation
# T7 chain: T1 chain with R292I, R311Q
# T8: Cre recombinase monomer with R292T mutation
# T8 chain: T1 chain with R292T, R311Q
# T9: Cre recombinase monomer with Y324W mutation
# T9 chain: T1 chain with R311Q, Y324W
# T10: Cre recombinase monomer with R292M mutation
# T10 chain: T1 chain with R292M, R311Q
# T11: Cre recombinase monomer with Y324F mutation
# T11 chain: T1 chain with R311Q, Y324F
# B1: Cre recombinase monomer with E176H mutation (protein)
# chain: T1 chain with E176H, R311Q
# B2: Cre recombinase monomer with E176V mutation (protein)
# chain: T1 chain with E176V, R311Q
# B3: Cre recombinase monomer with E176I mutation (protein)
# chain: T1 chain with E176I, R311Q
# Columns and labels:
# [1] = target: T1, Cre recombinase monomer with Q311R …
# [2] = target: T2, Cre recombinase monomer with R292A …
# [3] = target: T3, Cre recombinase monomer with R292S …
# [4] = target: T4, Cre recombinase monomer with R292E …
# [5] = target: T5, Cre recombinase monomer with K201A …
# [6] = target: T6, Cre recombinase monomer with R292N …
# [7] = target: T7, Cre recombinase monomer with R292I …
# [8] = target: T8, Cre recombinase monomer with R292T …
# [9] = target: T9, Cre recombinase monomer with Y324W …
# [10] = target: T10, Cre recombinase monomer with R292M …
# [11] = target: T11, Cre recombinase monomer with Y324F …
Protein,Median dimer activity (recombination on loxP) [1],Median dimer activity (recombination on loxP) [2],Median dimer activity (recombination on loxP) [3],Median dimer activity (recombination on loxP) [4],Median dimer activity (recombination on loxP) [5],Median dimer activity (recombination on loxP) [6],Median dimer activity (recombination on loxP) [7],Median dimer activity (recombination on loxP) [8],Median dimer activity (recombination on loxP) [9],Median dimer activity (recombination on loxP) [10],Median dimer activity (recombination on loxP) [11]
B1,51%,55%,68%,38%,33%,–,–,–,–,–,–
B2,–,–,28%,–,–,31%,33%,45%,–,–,–
B3,36%,–,40%,–,–,–,–,–,50%,43%,67%
